Test results published in patent US20220372159A1.

Molecular target: CD84 on CD4+ T cells of wild-type mice (mouse) (UniProt Q18PI6)
Assay: cell-based or functional assay

Sequence of UniProt Q18PI6 (Q18PI6 22-329): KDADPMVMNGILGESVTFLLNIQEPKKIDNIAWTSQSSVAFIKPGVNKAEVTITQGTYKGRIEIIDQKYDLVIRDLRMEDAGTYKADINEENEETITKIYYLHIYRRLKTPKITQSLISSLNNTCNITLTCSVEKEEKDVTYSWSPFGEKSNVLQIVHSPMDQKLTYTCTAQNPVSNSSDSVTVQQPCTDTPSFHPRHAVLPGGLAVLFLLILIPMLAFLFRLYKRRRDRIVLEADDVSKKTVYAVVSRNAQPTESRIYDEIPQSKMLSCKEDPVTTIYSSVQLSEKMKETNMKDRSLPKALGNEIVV

## platelet-derived soluble CD84 (sCD84) in the releasate of GPVI-stimulated WT mouse platelets (from UniProt Q18PI6 22-221) (receptor)
  distance and speed of migrating T cells (migration assay with platelet releasate): 25%
